In series [1] the target is USP25CD ΔIL (USP25 catalytic domain construct with the IL-loop, Cys465 to Pro537, replaced by Gly-Ser-Gly) (human). Kind of series: SEC; analytical gel filtration of all truncation constructs run in parallel under identical conditions, Superdex 16 column, 100 mM NaCl, 20 mM Tris-HCl pH 8.0, 1 mM β-mercaptoethanol; oligomer from elution time against expected molecular weight.

For another series, the target named is USP25 Y454F (human) (UniProt Q9UHP3). Nature of the series: SEC; oligomer state of USP25 point mutants (Supplementary Figures 6 and 11, not shown); by the methods all USP25 constructs were loaded on a Superdex 16 column in 100 mM NaCl, 20 mM Tris-HCl pH 8.0, 1 mM β-mercaptoethanol and run on native PAGE.
The target of the next series is USP25 Y454E (human) (UniProt Q9UHP3). Described as above.
In series [2] the target is USP25CD (human USP25 with the NTD and the CTD deleted) (human). Nature of the series: SEC; analytical gel filtration of all truncation constructs run in parallel under identical conditions, Superdex 16 column, 100 mM NaCl, 20 mM Tris-HCl pH 8.0, 1 mM β-mercaptoethanol; oligomer from elution time against expected molecular weight.
Series [3] deals with the molecule itself. The description is as above.
Series [4] has as its target T1, USP25FL (full-length human USP25) (human), Q9UHP3.
T1 chain: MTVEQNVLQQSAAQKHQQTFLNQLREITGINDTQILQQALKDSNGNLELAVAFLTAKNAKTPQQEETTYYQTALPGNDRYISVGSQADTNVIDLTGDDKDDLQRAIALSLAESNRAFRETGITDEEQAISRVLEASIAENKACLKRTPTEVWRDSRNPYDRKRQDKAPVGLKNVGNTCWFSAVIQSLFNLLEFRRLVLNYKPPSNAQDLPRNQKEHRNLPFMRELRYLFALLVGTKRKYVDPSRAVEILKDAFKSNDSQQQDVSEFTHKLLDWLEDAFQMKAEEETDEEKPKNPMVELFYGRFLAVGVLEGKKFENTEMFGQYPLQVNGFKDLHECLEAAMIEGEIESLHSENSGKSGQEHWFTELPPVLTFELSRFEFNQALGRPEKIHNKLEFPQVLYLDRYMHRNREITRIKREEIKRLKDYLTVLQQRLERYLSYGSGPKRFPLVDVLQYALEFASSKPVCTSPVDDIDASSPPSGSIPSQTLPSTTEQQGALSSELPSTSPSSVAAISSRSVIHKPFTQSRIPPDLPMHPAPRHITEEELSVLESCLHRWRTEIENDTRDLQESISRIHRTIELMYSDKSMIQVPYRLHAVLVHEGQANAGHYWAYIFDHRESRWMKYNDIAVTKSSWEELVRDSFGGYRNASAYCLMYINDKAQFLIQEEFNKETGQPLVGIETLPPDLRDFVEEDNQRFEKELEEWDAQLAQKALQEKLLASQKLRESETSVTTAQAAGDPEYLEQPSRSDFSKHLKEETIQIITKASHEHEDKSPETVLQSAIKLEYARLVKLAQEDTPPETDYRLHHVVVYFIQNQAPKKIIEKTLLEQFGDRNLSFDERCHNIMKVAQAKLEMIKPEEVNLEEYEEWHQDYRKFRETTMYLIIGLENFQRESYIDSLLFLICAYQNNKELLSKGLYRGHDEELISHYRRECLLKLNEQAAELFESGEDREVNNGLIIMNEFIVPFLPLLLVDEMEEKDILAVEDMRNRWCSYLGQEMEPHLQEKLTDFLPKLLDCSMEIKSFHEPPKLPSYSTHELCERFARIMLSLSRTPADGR
The description is as above. The note with it: remark: other sources report otherwise.

Series [5] deals with the molecule itself. Nature of the series: SEC; purification of USP25NCD: preparative Superdex 200 gel filtration, anion exchange of the two peak fractions, analytical gel filtration (Superdex 16) of the dimer and tetramer fractions; 100 mM NaCl, 20 mM Tris-HCl pH 8.0, 1 mM β-mercaptoethanol.

Values joined by “and” are separate entries in the source; they are usually repeats but may differ in a detail not shown here. Equal entries are not always repeated.

Molecule “USP25CD ΔIL (USP25 catalytic domain construct with the IL-loop, Cys465 to Pro537, replaced by Gly-Ser-Gly) (domain or fragment)” displayed a stoichiometry N in series [1] of 2.
“USP25 Y454F (from UniProt Q9UHP3 1-1055) (enzyme)” had a stoichiometry N with USP25 Y454F (human) of 4.
“USP25 Y454E (from UniProt Q9UHP3 1-1055) (enzyme)”: the stoichiometry N in the series with USP25 Y454E (human) was 2.
With “USP25CD (human USP25 with the NTD and the CTD deleted) (domain or fragment)”, the stoichiometry N in series [2] turned out to be 4.

B1: USP25NCD ΔIL (USP25 18-714 with the IL-loop, Cys465 to Pro537, replaced by Gly-Ser-Gly) (enzyme, human)
chain: QTFLNQLREITGINDTQILQQALKDSNGNLELAVAFLTAKNAKTPQQEETTYYQTALPGNDRYISVGSQADTNVIDLTGDDKDDLQRAIALSLAESNRAFRETGITDEEQAISRVLEASIAENKACLKRTPTEVWRDSRNPYDRKRQDKAPVGLKNVGNTCWFSAVIQSLFNLLEFRRLVLNYKPPSNAQDLPRNQKEHRNLPFMRELRYLFALLVGTKRKYVDPSRAVEILKDAFKSNDSQQQDVSEFTHKLLDWLEDAFQMKAEEETDEEKPKNPMVELFYGRFLAVGVLEGKKFENTEMFGQYPLQVNGFKDLHECLEAAMIEGEIESLHSENSGKSGQEHWFTELPPVLTFELSRFEFNQALGRPEKIHNKLEFPQVLYLDRYMHRNREITRIKREEIKRLKDYLTVLQQRLERYLSYGSGPKRFPLVDVLQYALEFASSKPVGSGRHITEEELSVLESCLHRWRTEIENDTRDLQESISRIHRTIELMYSDKSMIQVPYRLHAVLVHEGQANAGHYWAYIFDHRESRWMKYNDIAVTKSSWEELVRDSFGGYRNASAYCLMYINDKAQFLIQEEFNKETGQPLVGIETLPPDLRDFVEEDNQRFEKELEEWDAQLAQKALQE
notes: USP25, human, from Gln18 to the residue before the deletion (deletion from Cys465 to Pro537); three-amino-acid linker Gly-Ser-Gly in place of the deleted stretch; USP25, human, from the residue after the deletion to Glu714; also called ΔIL USP25NCD; USP25NCD ∆IL; not shown: Smt3, N-terminal, cleaved
For the molecule B1, the “stoichiometry N” value in series [3] turned out to be 2.

B2: USP25FL (full-length human USP25), Q9UHP3 1-1055 (enzyme)
chain: MTVEQNVLQQSAAQKHQQTFLNQLREITGINDTQILQQALKDSNGNLELAVAFLTAKNAKTPQQEETTYYQTALPGNDRYISVGSQADTNVIDLTGDDKDDLQRAIALSLAESNRAFRETGITDEEQAISRVLEASIAENKACLKRTPTEVWRDSRNPYDRKRQDKAPVGLKNVGNTCWFSAVIQSLFNLLEFRRLVLNYKPPSNAQDLPRNQKEHRNLPFMRELRYLFALLVGTKRKYVDPSRAVEILKDAFKSNDSQQQDVSEFTHKLLDWLEDAFQMKAEEETDEEKPKNPMVELFYGRFLAVGVLEGKKFENTEMFGQYPLQVNGFKDLHECLEAAMIEGEIESLHSENSGKSGQEHWFTELPPVLTFELSRFEFNQALGRPEKIHNKLEFPQVLYLDRYMHRNREITRIKREEIKRLKDYLTVLQQRLERYLSYGSGPKRFPLVDVLQYALEFASSKPVCTSPVDDIDASSPPSGSIPSQTLPSTTEQQGALSSELPSTSPSSVAAISSRSVIHKPFTQSRIPPDLPMHPAPRHITEEELSVLESCLHRWRTEIENDTRDLQESISRIHRTIELMYSDKSMIQVPYRLHAVLVHEGQANAGHYWAYIFDHRESRWMKYNDIAVTKSSWEELVRDSFGGYRNASAYCLMYINDKAQFLIQEEFNKETGQPLVGIETLPPDLRDFVEEDNQRFEKELEEWDAQLAQKALQEKLLASQKLRESETSVTTAQAAGDPEYLEQPSRSDFSKHLKEETIQIITKASHEHEDKSPETVLQSAIKLEYARLVKLAQEDTPPETDYRLHHVVVYFIQNQAPKKIIEKTLLEQFGDRNLSFDERCHNIMKVAQAKLEMIKPEEVNLEEYEEWHQDYRKFRETTMYLIIGLENFQRESYIDSLLFLICAYQNNKELLSKGLYRGHDEELISHYRRECLLKLNEQAAELFESGEDREVNNGLIIMNEFIVPFLPLLLVDEMEEKDILAVEDMRNRWCSYLGQEMEPHLQEKLTDFLPKLLDCSMEIKSFHEPPKLPSYSTHELCERFARIMLSLSRTPADGR
Turning to B2, the stoichiometry N in series [4] turned out to be 4.

B3: USP25NCD (human USP25, N-terminal domain and USP-like catalytic domain, Gln18 to Glu714) (enzyme, UniProt Q9UHP3 18-714, looked up)
chain: QTFLNQLREITGINDTQILQQALKDSNGNLELAVAFLTAKNAKTPQQEETTYYQTALPGNDRYISVGSQADTNVIDLTGDDKDDLQRAIALSLAESNRAFRETGITDEEQAISRVLEASIAENKACLKRTPTEVWRDSRNPYDRKRQDKAPVGLKNVGNTCWFSAVIQSLFNLLEFRRLVLNYKPPSNAQDLPRNQKEHRNLPFMRELRYLFALLVGTKRKYVDPSRAVEILKDAFKSNDSQQQDVSEFTHKLLDWLEDAFQMKAEEETDEEKPKNPMVELFYGRFLAVGVLEGKKFENTEMFGQYPLQVNGFKDLHECLEAAMIEGEIESLHSENSGKSGQEHWFTELPPVLTFELSRFEFNQALGRPEKIHNKLEFPQVLYLDRYMHRNREITRIKREEIKRLKDYLTVLQQRLERYLSYGSGPKRFPLVDVLQYALEFASSKPVCTSPVDDIDASSPPSGSIPSQTLPSTTEQQGALSSELPSTSPSSVAAISSRSVIHKPFTQSRIPPDLPMHPAPRHITEEELSVLESCLHRWRTEIENDTRDLQESISRIHRTIELMYSDKSMIQVPYRLHAVLVHEGQANAGHYWAYIFDHRESRWMKYNDIAVTKSSWEELVRDSFGGYRNASAYCLMYINDKAQFLIQEEFNKETGQPLVGIETLPPDLRDFVEEDNQRFEKELEEWDAQLAQKALQE
notes: USP25, human, residues 18-714 of the 1055-residue protein (Met1 to Arg1055); A His tag ahead of Smt3 is surmised from the Ni2+ purification; also called USP25NCD tetramer; USP25NCD dimer; not shown: Smt3, N-terminal, cleaved
B3: the “stoichiometry N” value in series [5] was 2 and 4.

B4: USP25FL ΔIL (full-length USP25 with the IL-loop, Cys465 to Pro537, replaced by Gly-Ser-Gly) (enzyme, human)
chain: MTVEQNVLQQSAAQKHQQTFLNQLREITGINDTQILQQALKDSNGNLELAVAFLTAKNAKTPQQEETTYYQTALPGNDRYISVGSQADTNVIDLTGDDKDDLQRAIALSLAESNRAFRETGITDEEQAISRVLEASIAENKACLKRTPTEVWRDSRNPYDRKRQDKAPVGLKNVGNTCWFSAVIQSLFNLLEFRRLVLNYKPPSNAQDLPRNQKEHRNLPFMRELRYLFALLVGTKRKYVDPSRAVEILKDAFKSNDSQQQDVSEFTHKLLDWLEDAFQMKAEEETDEEKPKNPMVELFYGRFLAVGVLEGKKFENTEMFGQYPLQVNGFKDLHECLEAAMIEGEIESLHSENSGKSGQEHWFTELPPVLTFELSRFEFNQALGRPEKIHNKLEFPQVLYLDRYMHRNREITRIKREEIKRLKDYLTVLQQRLERYLSYGSGPKRFPLVDVLQYALEFASSKPVGSGRHITEEELSVLESCLHRWRTEIENDTRDLQESISRIHRTIELMYSDKSMIQVPYRLHAVLVHEGQANAGHYWAYIFDHRESRWMKYNDIAVTKSSWEELVRDSFGGYRNASAYCLMYINDKAQFLIQEEFNKETGQPLVGIETLPPDLRDFVEEDNQRFEKELEEWDAQLAQKALQEKLLASQKLRESETSVTTAQAAGDPEYLEQPSRSDFSKHLKEETIQIITKASHEHEDKSPETVLQSAIKLEYARLVKLAQEDTPPETDYRLHHVVVYFIQNQAPKKIIEKTLLEQFGDRNLSFDERCHNIMKVAQAKLEMIKPEEVNLEEYEEWHQDYRKFRETTMYLIIGLENFQRESYIDSLLFLICAYQNNKELLSKGLYRGHDEELISHYRRECLLKLNEQAAELFESGEDREVNNGLIIMNEFIVPFLPLLLVDEMEEKDILAVEDMRNRWCSYLGQEMEPHLQEKLTDFLPKLLDCSMEIKSFHEPPKLPSYSTHELCERFARIMLSLSRTPADGR
notes: USP25, human, from Met1 to the residue before the deletion (deletion from Cys465 to Pro537); three-amino-acid linker Gly-Ser-Gly in place of the deleted stretch; USP25, human, from the residue after the deletion to Arg1055; also called ΔIL USP25FL; not shown: Smt3, N-terminal, cleaved
As for B4, the “stoichiometry N” value in series [3] was determined as 2.
